One assay concerns the target hCXCR1 (human) (UniProt P25024). Kind of assay: cell-based or functional assay.
Another assay has as its target T1, CCR1 (human) (UniProt P32246).
T1 sequence (looked up): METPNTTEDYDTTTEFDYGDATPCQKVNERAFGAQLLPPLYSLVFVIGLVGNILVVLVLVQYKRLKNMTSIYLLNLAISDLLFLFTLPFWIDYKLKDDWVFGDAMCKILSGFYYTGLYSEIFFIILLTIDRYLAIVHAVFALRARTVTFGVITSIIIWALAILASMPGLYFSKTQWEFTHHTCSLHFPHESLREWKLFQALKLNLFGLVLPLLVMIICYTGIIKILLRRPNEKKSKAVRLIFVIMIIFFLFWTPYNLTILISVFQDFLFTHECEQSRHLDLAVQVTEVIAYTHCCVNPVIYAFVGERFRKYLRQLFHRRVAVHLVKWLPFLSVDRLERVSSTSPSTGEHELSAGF
Kind of assay: blood passed through the biotinylated RANTES coupled matrix column; flow cytometry for CCR1, 3 or 5-expressing cells; one healthy donor.

For assay [1], the target named is CCR3 (human) (UniProt P51677). The description is as above.
Assay [2] addresses CCR5 (human) (UniProt P51681). The assay is described as above.
In assay [3] the target is CCR5 (human) (UniProt P51681). Kind of assay: cell-based or functional assay.
Assay [4] concerns the target CCR3 (human) (UniProt P51677). Nature of the assay: blood passed through the eotaxin coupled matrix (MACS beads, magnetic separator); flow cytometry before and after; one healthy donor. A general note: Flow cytometry measures light scatter and fluorescence of single cells or particles in a stream.
Another assay deals with T2, CCR7 (human, UniProt P32248 25-378).
T2 sequence (looked up): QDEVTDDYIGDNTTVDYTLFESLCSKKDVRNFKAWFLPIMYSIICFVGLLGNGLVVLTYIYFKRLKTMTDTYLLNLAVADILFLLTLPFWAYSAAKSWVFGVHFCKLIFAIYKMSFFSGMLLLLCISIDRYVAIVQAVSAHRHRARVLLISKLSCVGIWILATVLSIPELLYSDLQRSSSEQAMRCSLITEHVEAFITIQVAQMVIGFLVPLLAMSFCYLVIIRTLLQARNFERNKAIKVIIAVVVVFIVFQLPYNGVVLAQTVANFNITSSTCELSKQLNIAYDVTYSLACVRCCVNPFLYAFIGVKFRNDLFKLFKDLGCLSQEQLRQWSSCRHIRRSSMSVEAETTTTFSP
Nature of the assay: cell-based or functional assay.

The target in assay [5] is CCR3 (human) (UniProt P51677). Nature of the assay: cell-based or functional assay.
The next assay concerns the target T3, hCCR2b (human, UniProt P41597 1-374).
T3 chain: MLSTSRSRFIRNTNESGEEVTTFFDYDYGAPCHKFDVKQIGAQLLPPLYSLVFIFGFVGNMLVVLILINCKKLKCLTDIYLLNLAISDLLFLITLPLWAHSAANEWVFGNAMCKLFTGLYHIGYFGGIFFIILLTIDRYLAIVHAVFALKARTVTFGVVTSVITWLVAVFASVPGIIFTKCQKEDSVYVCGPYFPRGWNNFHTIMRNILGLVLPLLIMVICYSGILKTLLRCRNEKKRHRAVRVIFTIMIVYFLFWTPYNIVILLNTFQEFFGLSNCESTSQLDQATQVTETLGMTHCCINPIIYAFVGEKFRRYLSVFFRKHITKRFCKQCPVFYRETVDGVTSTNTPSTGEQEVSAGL
Nature of the assay: cell-based or functional assay.

The text below walks through data of EP3228631A2 (TLA Targeted Immunotherapies AB, dated 2017).

Chain of CCR3 (human) (P51677 whole entry): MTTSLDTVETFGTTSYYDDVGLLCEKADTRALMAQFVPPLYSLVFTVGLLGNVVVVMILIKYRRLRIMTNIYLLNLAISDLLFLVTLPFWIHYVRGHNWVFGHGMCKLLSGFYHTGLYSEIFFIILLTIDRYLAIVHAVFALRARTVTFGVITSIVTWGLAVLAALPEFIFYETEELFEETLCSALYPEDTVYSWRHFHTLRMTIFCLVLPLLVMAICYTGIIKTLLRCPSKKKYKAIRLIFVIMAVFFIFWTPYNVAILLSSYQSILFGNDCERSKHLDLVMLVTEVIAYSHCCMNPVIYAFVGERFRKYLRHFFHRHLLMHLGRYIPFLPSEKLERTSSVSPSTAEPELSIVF
Chain of CCR5 (human) (P51681 whole entry): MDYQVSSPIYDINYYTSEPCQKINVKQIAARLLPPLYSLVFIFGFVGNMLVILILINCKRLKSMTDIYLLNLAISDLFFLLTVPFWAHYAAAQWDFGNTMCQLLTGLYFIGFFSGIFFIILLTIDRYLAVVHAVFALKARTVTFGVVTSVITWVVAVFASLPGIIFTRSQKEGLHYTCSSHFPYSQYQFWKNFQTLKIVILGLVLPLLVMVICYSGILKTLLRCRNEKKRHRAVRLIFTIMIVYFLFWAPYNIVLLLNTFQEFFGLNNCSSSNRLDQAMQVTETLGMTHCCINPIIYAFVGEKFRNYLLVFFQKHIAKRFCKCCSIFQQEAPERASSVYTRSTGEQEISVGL
Chain of hCXCR1 (human) (P25024 whole entry): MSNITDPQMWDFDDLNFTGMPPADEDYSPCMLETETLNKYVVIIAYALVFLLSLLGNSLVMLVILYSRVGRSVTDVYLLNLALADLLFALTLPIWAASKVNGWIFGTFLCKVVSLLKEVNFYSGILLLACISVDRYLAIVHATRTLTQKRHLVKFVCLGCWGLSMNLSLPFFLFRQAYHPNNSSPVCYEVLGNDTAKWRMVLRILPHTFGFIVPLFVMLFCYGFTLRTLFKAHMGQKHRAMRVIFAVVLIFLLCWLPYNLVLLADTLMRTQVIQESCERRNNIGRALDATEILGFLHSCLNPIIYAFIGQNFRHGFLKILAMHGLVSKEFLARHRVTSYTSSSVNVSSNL

Regarding “biotinIL-8 (6-78) (IL-8 (6-78) derivatised at the ε-amino side chain functionality of Lys(78) with PEG-Biotin) (from UniProt P10145 28-99) (ligand)”, the EC50, agonist activity, Aequorin assay with hCXCR1 (human) was 6.1 nM.

In the case of “biotinRANTES (RANTES derivatised at the ε-amino side chain functionality of Lys(67) with Biotin) (from UniProt P13501 24-91) (ligand)”, the reduction of chemokine receptor-expressing cells by the column with CCR1 (human), with CCR3 (human) [1] and with CCR5 (human) [2] was 20% throughout. For the same molecule, in the assay with CCR5 (human) [3], the EC50, agonist activity, Aequorin assay worked out at 0.5 nM.

“biotinylated eotaxin (from UniProt P51671 24-97) (ligand)” came in with a reduction of CCR3-expressing cells by the column with CCR3 (human) [4] of 25%.

With “recombinant native IL-8 (from UniProt P10145 28-99) (ligand)”, the EC50, Aequorin assay with hCXCR1 (human) came to 4.2 nM.

For the molecule “recombinant native MIP-3β (from UniProt Q99731 22-98) (ligand)”, the EC50, Aequorin assay with CCR7 was found to be 1.6 nM.

Molecule “recombinant native eotaxin (from UniProt P51671 24-97) (ligand)” had an EC50, agonist, Aequorin assay with CCR3 (human) [5] of 10.7 nM.

B1: recombinant native MCP-2 (ligand, human, UniProt P80075 24-99, looked up)
chain: QPDSVSIPITCCFNVINRKIPIQRLESYTRITNIQCPKEAVIFKTKRGKEVCADPKERWVRDSMKHLDQIFQNLKP
Turning to B1, the “EC50, partial agonist, Aequorin assay” value with hCCR2b is 23.5 nM.

B2: biotinMIP-3β (MIP-3β derivatised at the ε-amino side chain functionality of Lys(78) with Biotin) (ligand)
chain: GTNDAEDCCLSVTQKPIPGYIVRNFHYLLIKDGCRVPAVVFTTLRGRQLCAPPDQPWVERIIQRLQRTSAKMKRRSSX
modifications: X78 = K(Biotin) (additional C-terminal lysine, biotinylated); C-terminal amide (Rink Amide resin)
Take B2: the “EC50, agonist activity, Aequorin assay” value with CCR7 was found to be 11 nM.
